Test results from paper PMC5701055 (Nature Communications, 2017).

Target: the molecule itself
Assay: crystal structure

B1: soluble ectodomain of human aminopeptidase N (hAPN), residues 66–967, WT (receptor)
chain: DQSKAWNRYRLPNTLKPDSYRVTLRPYLTPNDRGLYVFKGSSTVRFTCKEATDVIIIHSKKLNYTLSQGHRVVLRGVGGSQPPDIDKTELVEPTEYLVVHLKGSLVKDSQYEMDSEFEGELADDLAGFYRSEYMEGNVRKVVATTQMQAADARKSFPCFDEPAMKAEFNITLIHPKDLTALSNMLPKGPSTPLPEDPNWNVTEFHTTPKMSTYLLAFIVSEFDYVEKQASNGVLIRIWARPSAIAAGHGDYALNVTGPILNFFAGHYDTPYPLPKSDQIGLPDFNAGAMENWGLVTYRENSLLFDPLSSSSSNKERVVTVIAHELAHQWFGNLVTIEWWNDLWLNEGFASYVEYLGADYAEPTWNLKDLMVLNDVYRVMAVDALASSHPLSTPASEINTPAQISELFDAISYSKGASVLRMLSSFLSEDVFKQGLASYLHTFAYQNTIYLNLWDHLQEAVNNRSIQLPTTVRDIMNRWTLQMGFPVITVDTSTGTLSQEHFLLDPDSNVTRPSEFNYVWIVPITSIRDGRQQQDYWLIDVRAQNDLFSTSGNEWVLLNLNVTGYYRVNYDEENWRKIQTQLQRDHSAIPVINRAQIINDAFNLASAHKVPVTLALNNTLFLIEERQYMPWEAALSSLSYFKLMFDRSEVYGPMKNYLKKQVTPLFIHFRNNTNNWREIPENLMDQYSEVNAISTACSNGVPECEEMVSGLFKQWMENPNNNPIHPNLRSTVYCNAIAQGGEEEWDFAWEQFRNATLVNEADKLRAALACSKELWILNRYLSYTLNPDLIRKQDATSTIISITNNVIGQGLVWDFVQSNWKKLFNDYGGGSFSFSNLIQAVTRRFSTEYELQQLEQFKKDNEETGFGSGTRALEQALEKTKANIKWVKENKEVVLQWFTENSK
- binding result: binds
